Article PMC9896810, “Crk proteins activate the Rap1 guanine nucleotide exchange factor C3G by segregated adaptor-dependent and -independent mechanisms” (Cell Communication and Signaling : CCS, 2023)

T1: C3G-PAAA (human, UniProt Q13905-1 4-1077, P453A | P454A | L456A | P457A | K459A | P540A | P541A | L543A | P544A | K546A | …)
T1 construct: human C3G isoform a, residues 4-1077; only P1 kept, P2, P3 and P4 mutated to Ala; source: E. coli BL21 (DE3), purified (IMAC, TEV digestion, reversed IMAC, SEC); not shown: His, N-terminal, cleaved; Halo, N-terminal, cleaved
T1 sequence (looked up): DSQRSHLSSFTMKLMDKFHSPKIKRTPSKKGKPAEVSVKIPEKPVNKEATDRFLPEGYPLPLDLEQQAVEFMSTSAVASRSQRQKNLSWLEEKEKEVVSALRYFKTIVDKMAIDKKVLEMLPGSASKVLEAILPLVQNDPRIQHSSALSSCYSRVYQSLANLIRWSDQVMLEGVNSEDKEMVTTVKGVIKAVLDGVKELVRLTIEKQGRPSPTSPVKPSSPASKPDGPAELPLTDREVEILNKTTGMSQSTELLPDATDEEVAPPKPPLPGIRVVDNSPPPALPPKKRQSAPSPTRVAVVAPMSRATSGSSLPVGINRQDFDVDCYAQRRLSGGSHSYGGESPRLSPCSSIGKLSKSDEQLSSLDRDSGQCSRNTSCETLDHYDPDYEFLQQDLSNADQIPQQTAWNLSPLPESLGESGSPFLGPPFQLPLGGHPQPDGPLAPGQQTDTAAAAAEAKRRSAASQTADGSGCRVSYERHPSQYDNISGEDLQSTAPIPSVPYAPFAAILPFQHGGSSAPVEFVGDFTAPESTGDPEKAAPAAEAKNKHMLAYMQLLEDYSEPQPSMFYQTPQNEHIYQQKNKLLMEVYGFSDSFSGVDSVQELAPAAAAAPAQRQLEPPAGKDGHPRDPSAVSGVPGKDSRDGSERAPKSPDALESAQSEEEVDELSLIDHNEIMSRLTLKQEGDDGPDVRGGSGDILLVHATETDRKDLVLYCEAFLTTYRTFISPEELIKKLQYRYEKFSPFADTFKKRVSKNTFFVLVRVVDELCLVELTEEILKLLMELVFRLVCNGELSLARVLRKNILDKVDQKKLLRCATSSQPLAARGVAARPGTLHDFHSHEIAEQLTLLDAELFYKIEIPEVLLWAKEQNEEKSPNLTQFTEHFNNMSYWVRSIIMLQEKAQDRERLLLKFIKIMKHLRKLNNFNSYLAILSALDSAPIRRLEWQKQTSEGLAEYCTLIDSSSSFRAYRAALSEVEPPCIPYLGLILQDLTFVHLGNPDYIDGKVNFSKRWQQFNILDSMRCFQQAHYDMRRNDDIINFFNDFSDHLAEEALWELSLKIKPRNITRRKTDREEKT

T2: C3G-AAAP-Y554H (human, UniProt Q13905-1 4-1077, P283A | P284A | L286 | P287 | P289A | P453A | P454A | L456A | P457A | K459A | …)
T2 construct: human C3G isoform a, residues 4-1077; source: E. coli BL21 (DE3), purified (IMAC, TEV digestion, reversed IMAC, SEC); not shown: His, N-terminal, cleaved; Halo, N-terminal, cleaved
T2 sequence (looked up): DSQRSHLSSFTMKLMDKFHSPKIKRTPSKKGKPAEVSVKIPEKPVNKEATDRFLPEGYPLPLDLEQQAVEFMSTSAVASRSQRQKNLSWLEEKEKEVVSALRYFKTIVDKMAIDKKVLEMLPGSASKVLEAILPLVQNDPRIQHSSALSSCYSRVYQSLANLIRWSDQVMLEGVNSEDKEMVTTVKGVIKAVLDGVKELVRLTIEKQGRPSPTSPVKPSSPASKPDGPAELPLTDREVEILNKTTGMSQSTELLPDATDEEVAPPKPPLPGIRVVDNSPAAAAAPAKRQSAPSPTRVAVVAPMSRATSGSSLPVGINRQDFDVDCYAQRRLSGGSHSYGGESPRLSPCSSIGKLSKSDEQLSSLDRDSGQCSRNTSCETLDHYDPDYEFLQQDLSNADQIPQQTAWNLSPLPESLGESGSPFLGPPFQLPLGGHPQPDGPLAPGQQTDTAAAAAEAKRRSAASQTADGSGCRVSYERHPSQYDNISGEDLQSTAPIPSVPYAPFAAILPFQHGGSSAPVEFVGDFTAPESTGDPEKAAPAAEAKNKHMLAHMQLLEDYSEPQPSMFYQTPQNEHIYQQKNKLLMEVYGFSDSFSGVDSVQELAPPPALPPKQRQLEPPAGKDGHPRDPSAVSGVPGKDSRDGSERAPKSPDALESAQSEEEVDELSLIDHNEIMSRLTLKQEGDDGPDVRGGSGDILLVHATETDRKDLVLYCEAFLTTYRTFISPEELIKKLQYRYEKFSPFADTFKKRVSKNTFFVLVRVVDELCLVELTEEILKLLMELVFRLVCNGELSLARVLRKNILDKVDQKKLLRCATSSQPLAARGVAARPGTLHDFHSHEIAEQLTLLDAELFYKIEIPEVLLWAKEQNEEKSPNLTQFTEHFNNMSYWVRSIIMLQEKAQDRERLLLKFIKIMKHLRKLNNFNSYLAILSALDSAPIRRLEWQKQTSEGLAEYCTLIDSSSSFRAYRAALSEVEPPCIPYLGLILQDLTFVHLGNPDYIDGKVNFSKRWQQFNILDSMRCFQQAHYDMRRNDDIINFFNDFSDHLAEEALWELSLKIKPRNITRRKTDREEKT


Legend:
C3G-PAAA = target: T1, C3G-PAAA; test: ITC; single-PRM mutant of C3G in the cell titrated with CrkL or CrkL-SH3N, 25 °C, 300 mM NaCl, pH 7.5; SEDPHAT, 1:1 heteroassociation model; N is the competent fraction of C3G; settings: both partners purified
C3G-AAAP-Y554H = target: T2, C3G-AAAP-Y554H; test: as above; settings: both partners purified

Kd (C3G-PAAA) [nM]	stoichiometry N (C3G-PAAA)	Kd (C3G-AAAP-Y554H) [nM]	stoichiometry N (C3G-AAAP-Y554H)	Binder
900	0.86	–	–	CrkL (full-length) (natural protein, human, UniProt P46109 1-303, looked up, human CrkL, residues 1-303, in pETEV15b; also called Crk-like protein; source: E. coli BL21 (DE3), purified (IMAC, TEV digestion, SEC); not shown: His, N-terminal, cleaved) MSSARFDSSDRSAWYMGPVSRQEAQTRLQGQRHGMFLVRDSSTCPGDYVLSVSENSRVSHYIINSLPNRRFKIGDQEFDHLPALLEFYKIHYLDTTTLIEPAPRYPSPPMGSVSAPNLPTAEDNLEYVRTLYDFPGNDAEDLPFKKGEILVIIEKPEEQWWSARNKDGRVGMIPVPYVEKLVRSSPHGKHGNRNSNSYGIPEPAHAYAQPQTTTPLPAVSGSPGAAITPLPSTQNGPVFAKAIQKRVPCAYDKTALALEVGDIVKVTRMNINGQWEGEVNGRKGLFPFTHVKIFDPQNPDENE
–	–	2400	0.57	CrkL-SH3N (domain or fragment, human, UniProt P46109 125-182, looked up, human CrkL, SH3N domain, residues 125-182, in pETEV15b; source: E. coli BL21 (DE3), purified (IMAC, TEV digestion, SEC); not shown: His, N-terminal, cleaved) LEYVRTLYDFPGNDAEDLPFKKGEILVIIEKPEEQWWSARNKDGRVGMIPVPYVEKLV
